Laboratory results published in patent US20130302375A1, “MODULATION OF ANTIGEN IMMUNOGENICITY BY ADDITION OF EPITOPES RECOGNIZED BY NKT CELLS” (IMNATE SARL, priority 2010, published 2013).
Residue numbers refer to the chain shown, from its start.

How the values were obtained:
EG7 tumor cells = assay: EG7 tumor growth in preimmunized mice; format: in vivo; settings: mice preimmunized subcutaneously in alum on 4 occasions, then engrafted with 10^6 EG7 tumor cells in the flank
Protocol: Immunization of mice with ova of SEQ ID4 was carried out using […] of ova in alum administered subcutaneously on 4 occasions separated by an interval of 10 days. A control group was immunized with ova in natural sequence (SEQ ID3). All mice were then engrafted with 10^6 EG7 tumor cells injected in the flank and the growth of the tumor was followed over time.

EG7 cells = assay: In vitro killing of EG7 cells by NKT cells from immunized mice (Annexin V / 7-AAD); format: cell-based; settings: 18 h at 37° C. with NKT cells from immunized mice, ratios 1/1 to 1/5 (EG7 versus NKT)
Protocol: In vitro killing of EG7 cells was evaluated using NKT cells prepared from the spleen using magnetic bead sorting. The NKT cells were first stimulated for 4 h in vitro with antigen-presenting cells loaded with ova of SEQ ID4. EG7 cells were labeled at membrane level with 1 μM DiOC18 (3,3′-dioctadecycloxacarbocyanine perchlorate from Invitrogen). EG7 cells (1×10^5 per well) were then cultured for 18 h at 37° C. in the presence of NKT cells obtained from each one of the 2 mouse groups, using ratios of 1/1 to 1/5 (EG7 cells versus NKT cells). After 18 h, cells were harvested and stained for Annexin V and 7-AAD following manufacturer's instructions (Apoptosis Detection kit; BD Biosciences) and analyzed on a FACSCantoII flow cytometer (BD Biosciences).

anti-Der p 2 antibodies = assay: Specific anti-Der p 2 antibodies by direct binding ELISA after immunization; format: in vivo, C57BL/6 mice; settings: 50 μg protein in alum subcutaneously 4 times at 10 days intervals
Protocol: Two groups of C57BL/6 mice (H-2b) were immunized with either native Der p 2 (SEQ ID7) or native Der p 2 wherein a CD1d binding motif had been added (SEQ ID8), using 50 μg of protein in alum injected subcutaneously 4 times at 10 days intervals. Mice were then bled and the concentration of specific anti-Der p 2 antibodies was tested by direct binding ELISA. It is observed that the concentration of antibodies is 10-fold higher in the group of mice immunized with Der p 2 of SEQ ID8.

[1] = tested on: class II restricted CD4+ T cells; assay: Proliferation of CD4+ T cells from immunized mice cultured with dendritic cells from CD1d KO mice; format: cell-based, C57BL/6 mice; settings: 10^6 cells/well with dendritic cells from syngeneic CD1d KO mice
Protocol: Further, CD4+ T cells were prepared from the spleen of each mouse from the 2 groups, using magnetic bead sorting. Such cells (10^6 cells/well) were cultured with dendritic cells prepared from syngeneic CD1d KO mice. Such cells can only activate class II restricted CD4+ T cells. It is observed that cells obtained from mice immunized with Der p 2 of SEQ ID8 proliferate with a stimulation index 4-fold higher than cells obtained from mice immunized with native Der p 2 (SEQ ID7).

B1: ova of SEQ ID4: ovalbumin with H22 and K187 mutated to F, generating new CD1d binding motifs (protein, listed as Gallus sp.)
chain: MGSIGAASMEFCFDVFKELKVFHANENIFYCPIAIMSALAMVYLGAKDSTRTQINKVVRFDKLPGFGDSIEAQCGTSVNVHSSLRDILNQITKPNDVYSFSLASRLYAEERYPILPEYLQCVKELYRGGLEPINFQTAADQARELINSWVESQTNGIIRNVLQPSSVDSQTAMVLVNAIVFKGLWEFTFKDEDTQAMPFRVTEQESKPVQMMYQIGLFRVASMASEKMKILELPFASGTMSMLVLLPDEVSGLEQLESIINFEKLTEWTSSNVMEERKIKVYLPRMKMEEKYNLTSVLMAMGITDVFSSSANLSGISSAESLKISQAVHAAHAEINEAGREVVGSAEAGVDAASVSEEFRADHPFLFCIKHIATNAVLFFGRCVSP
EG7 tumor cells
  tumor rejection: rejected the tumor
EG7 cells
  apoptosis of EG7 cells: induced into apoptosis

B2: ova of SEQ ID3: ovalbumin (chicken) in natural sequence (protein, listed as Gallus sp.)
chain: B1 chain with F22H, F187K
EG7 tumor cells
  tumor rejection: did not
EG7 cells
  apoptosis of EG7 cells: did not induce a significant degree of tumor cell apoptosis

B3: Der p 2 of SEQ ID8: Der p 2 with the CD1d binding motif FAALAAF added at the carboxyterminal end (protein, listed as Dermatophagoides pteronyssinus)
chain: DQVDVKDCANHEIKKVLVPGCHGSEPCIIHRGKPFQLEAVFEANQNSKTAKIEIKASIDGLEVDVPGIDPNACHYMKCPLVKGQQYDIKYTWNVPKIAPKSENVVVTAKVMGDDGVLACAIATHAKIRDFAALAAF
anti-Der p 2 antibodies
  concentration of specific anti-Der p 2 antibodies, versus mice immunized with native Der p 2 (SEQ ID7): 10 fold
[1]
  stimulation index of CD4+ T cell proliferation, versus cells from mice immunized with native Der p 2 (SEQ ID7): 4 fold
